{"source": "patent US20200002710A1", "about": "“SYSTEMS AND METHODS FOR CONTROL OF GENE EXPRESSION” (TRUSTEES OF BOSTON UNIVERSITY, published 2020)", "binders": {"B1": {"name": "42-10 DBM1 (dsDNA)", "DNA 1": "AGACGCTGCTC", "DNA 2": "GAGCAGCGTCT"}}, "key": {"[1]": {"target": "T1, 42-10 (ZF2) low affinity synTF (artificial, R-to-A backbone (low affinity allele, already in ref))", "T1 chain": "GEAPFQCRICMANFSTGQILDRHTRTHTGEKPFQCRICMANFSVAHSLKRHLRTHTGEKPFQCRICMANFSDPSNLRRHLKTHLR", "assay": "FP; fluorescence anisotropy; Zn2+, 25 C", "conditions": "tags: N-terminal MBP; C-terminal GS linker + syntrophin ligand S5 (VKESLV)", "procedure": "(§1) All assays were conducted in 20 mM Tris, pH 7.5, 100 mM […], 50 μM ZnCl2 buffer at 25° C. Proteins, probes, and competitor oligos were added to a final volume of 300 μL. Probes were used at 10 nM in all experiments. For complex assembly experiments (FIG. 1C), indicated concentrations of MBP-ZF₄₃₋₈ harboring a VSKESLV* ligand (SEQ ID NO: 120) (see e.g., FIG. 5A-FIG. 5B, FIG. 7A-FIG. 7B) were titrated against 5 μM concentrations of clamp. Mixtures were allowed to equilibrate at 25° C. for 10 min in Costar black 96-well plates prior to reading. Fluorescence anisotropy (FA) measurements were made at 494 nm using a SpectraMax M5 (Molecular Devices) fluorescence plate reader. For all measurements, anisotropy (r) was calculated using the following equation, wherein I_{∥} and I_{⊥} are parallel and perpendicular fluorescence, respectively:\n(§2) TF-DBM binding constants were measured in vitro by fluorescence anisotropy (FA). Recombinant proteins were purified and DBM oligos prepared as described herein. […] Affinities for the interaction were measured as a function of the increase in fluorescence anisotropy resulting from binding of the fusion to a fluorescently labeled (FITC) oligo probe (data not shown). Oligo probe binding to ZF affinity variants was measured. MBP-ZF was titrated against 10 nM oligo probe. […] Kd values were extracted by fitting data to a quadratic binding equation (data not shown). Competition binding experiments were performed to measure binding constants for DBM affinity variants. […] Competitor oligo Kₐ values were extracted by fitting data (converted to fraction probe bound) to a cubic equation describing competitive binding (see e.g., FIG. 6). Sequences for both sets of DBM affinity variants are listed on the right of FIG. 6."}, "[2]": {"target": "T2, 42-10 (ZF2) high affinity synTF (artificial)", "T2 chain": "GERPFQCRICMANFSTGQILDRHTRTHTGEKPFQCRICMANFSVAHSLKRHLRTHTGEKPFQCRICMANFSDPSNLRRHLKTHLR", "assay": "FP; fluorescence anisotropy; Zn2+, 25 C", "conditions": "tags: N-terminal MBP; C-terminal GS linker + syntrophin ligand S5 (VKESLV)", "procedure": "as §1, §2"}}, "data": [{"binder": "B1", "values": [{"measurement": "Kd", "setting": "[1]", "value": 15, "unit": "nM"}, {"measurement": "Kd", "setting": "[2]", "value": 2.4, "unit": "nM"}]}]}
